# Laboratory results as given in patent EP4806922A2 (Lyvgen Biopharma Holdings Limited, dated 2026).
# T1: human BCMA protein (human, UniProt Q02223 1-54)
# T1 construct: also called human BCMA expressing NCI-H929 cells; human BCMA overexpressing HEK293 cells
# T1 sequence (looked up): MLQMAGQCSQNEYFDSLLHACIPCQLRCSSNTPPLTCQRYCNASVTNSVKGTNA
# How the values were obtained:
# Assay in all cases: FCM or ELISA, graded summary
# human CD137 protein = biological target: T2, human CD137 protein (human, UniProt Q07011 24-186)
# T2 construct: also called human CD137 expressing CHO cells
# human CD3D/E protein = biological target: T3, human CD3D/E protein (human, UniProt P04234 22-105; P07766 23-126)
# T3 construct: also called human CD3 expressing Jurkat cells
# human BCMA protein = biological target: T1, human BCMA protein
# T2 sequence (Q07011 24-186 limits assumed): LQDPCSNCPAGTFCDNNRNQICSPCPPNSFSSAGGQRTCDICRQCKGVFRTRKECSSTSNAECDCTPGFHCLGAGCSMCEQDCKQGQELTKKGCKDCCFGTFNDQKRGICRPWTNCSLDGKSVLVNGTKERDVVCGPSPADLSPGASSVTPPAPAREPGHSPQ
# T3 sequence (P04234 22-105, chain 1 of 2): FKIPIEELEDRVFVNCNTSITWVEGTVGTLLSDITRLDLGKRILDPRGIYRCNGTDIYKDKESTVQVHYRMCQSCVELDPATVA
# T3 sequence (P07766 23-126, chain 2 of 2): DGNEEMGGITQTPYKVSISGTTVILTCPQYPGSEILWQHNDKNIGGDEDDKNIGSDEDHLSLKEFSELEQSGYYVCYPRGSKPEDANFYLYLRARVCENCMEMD
Binder,binding result (human CD137 protein),binding result (human CD3D/E protein),binding result (human BCMA protein)
"Ly2949 (BCMA/CD3/CD137) (other, Multi-specific (tri-specific) antibody with three different chains HC1, HC2, LC1; also called BCMA(a) /CD3 /CD137; anti-BCMA/CD3/CD137 multi-specific antibody) heavy 1: QVQLVQSGAEVKKPGASVKVSCKASGYTFTNHIIHWVRQAPGQGLEWMGYINPYPGYHAYNEKFQGRATMTSDTSTSTVYMELSSLRSEDTAVYYCARDGYYRDTDVLDYWGQGTLVTVSSASTKGPSVFPLAPSSKSTSGGTAALGCLVKDYFPEPVTVSWNSGALTSGVHTFPAVLQSSGLYSLSSVVTVPSSSLGTQTYICNVNHKPSNTKVDKKVEPKSCGGGGSGGGGSGGGGSGGGGSEVQLVESGGGLVQPGGSLRLSCAASGFTFSTYAMNWVRQAPGKGLEWVGRIRSKYNNYATYYADSVKGRFTISRDDSKNSLYLQMNSLKTEDTAVYYCVRHGNFGNSYVSWFAYWGQGTLVTVSSGGGGSDKTHTCPPCPAPELLGPSVFLFPPKPKDTLMISRTPEVTCVVVDVSHEDPEVKFNWYVDGVEVHNAKTKPREEQYNSTYRVVSVLTVLHQDWLNGKEYKCKVSNKALGAPIEKTISKAKGQPREPQVYTLPPSREEMTKNQVSLWCLVKGFYPSDIAVEWESNGQPENNYKTTPPVLDSDGSFFLYSKLTVDKSRWQQGNVFSCSVMHEALHNHYTQKSLSLSPGKGGGGSGGGGSGGGGSGGGGSQVQLVQSGAEVKKPGASVKVSCKASGYTFAGFEMHWVRQAPGQGLEWMGAIDPKTGGTDYNQKFKDRVTMTRDTSISTAYMELSRLRSDDTAVYYCARDLGYFDVWGQGTLVTVSS heavy 2: QVQLVQSGAEVKKPGASVKVSCKASGYTFTNHIIHWVRQAPGQGLEWMGYINPYPGYHAYNEKFQGRATMTSDTSTSTVYMELSSLRSEDTAVYYCARDGYYRDTDVLDYWGQGTLVTVSSASTKGPSVFPLAPSSKSTSGGTAALGCLVKDYFPEPVTVSWNSGALTSGVHTFPAVLQSSGLYSLSSVVTVPSSSLGTQTYICNVNHKPSNTKVDKKVEPKSCGGGGSGGGGSGGGGSGGGGSQAVVTQEPSLTVSPGGTVTLTCRSSTGAVTTSNYANWVQQKPGQAPRGLIGGTNKRAPWTPARFSGSLLGGKAALTITGAQAEDEADYYCALWYSNLWVFGGGTKLTVLGGGGSDKTHTCPPCPAPELLGPSVFLFPPKPKDTLMISRTPEVTCVVVDVSHEDPEVKFNWYVDGVEVHNAKTKPREEQYNSTYRVVSVLTVLHQDWLNGKEYKCKVSNKALGAPIEKTISKAKGQPREPQVYTLPPSREEMTKNQVSLSCAVKGFYPSDIAVEWESNGQPENNYKTTPPVLDSDGSFFLVSKLTVDKSRWQQGNVFSCSVMHEALHNRFTQKSLSLSPGKGGGGSGGGGSGGGGSGGGGSDIQMTQSPSSLSASVGDRVTITCRASQDIRSNLNWYQQKPGGAVKLLIYYTSRLHSGVPSRFSGSGSGTDYTLTISSLQPEDFATYFCQQSEKLPRTFGGGTKVEIR light: not shown",binds,binds,binds
"Ly3096 (BCMA/CD3/CD137) (other, Multi-specific (tri-specific) antibody with three different chains HC1, HC2, LC1; also called BCMA(b) /CD3 /CD137) heavy 1: QLQLQESGPGLVKPSETLSLTCTVSGGSISSGSYFWGWIRQPPGKGLEWIGSIYYSGITYYNPSLKSRVTISVDTSKNQFSLKLSSVTAADTAVYYCARHDGAVAGLFDYWGQGTLVTVSSASTKGPSVFPLAPSSKSTSGGTAALGCLVKDYFPEPVTVSWNSGALTSGVHTFPAVLQSSGLYSLSSVVTVPSSSLGTQTYICNVNHKPSNTKVDKKVEPKSCGGGGSGGGGSGGGGSGGGGSEVQLVESGGGLVQPGGSLRLSCAASGFTFSTYAMNWVRQAPGKGLEWVGRIRSKYNNYATYYADSVKGRFTISRDDSKNSLYLQMNSLKTEDTAVYYCVRHGNFGNSYVSWFAYWGQGTLVTVSSGGGGSDKTHTCPPCPAPELLGPSVFLFPPKPKDTLMISRTPEVTCVVVDVSHEDPEVKFNWYVDGVEVHNAKTKPREEQYNSTYRVVSVLTVLHQDWLNGKEYKCKVSNKALGAPIEKTISKAKGQPREPQVYTLPPSREEMTKNQVSLWCLVKGFYPSDIAVEWESNGQPENNYKTTPPVLDSDGSFFLYSKLTVDKSRWQQGNVFSCSVMHEALHNHYTQKSLSLSPGKGGGGSGGGGSGGGGSGGGGSQVQLVQSGAEVKKPGASVKVSCKASGYTFAGFEMHWVRQAPGQGLEWMGAIDPKTGGTDYNQKFKDRVTMTRDTSISTAYMELSRLRSDDTAVYYCARDLGYFDVWGQGTLVTVSS heavy 2: QLQLQESGPGLVKPSETLSLTCTVSGGSISSGSYFWGWIRQPPGKGLEWIGSIYYSGITYYNPSLKSRVTISVDTSKNQFSLKLSSVTAADTAVYYCARHDGAVAGLFDYWGQGTLVTVSSASTKGPSVFPLAPSSKSTSGGTAALGCLVKDYFPEPVTVSWNSGALTSGVHTFPAVLQSSGLYSLSSVVTVPSSSLGTQTYICNVNHKPSNTKVDKKVEPKSCGGGGSGGGGSGGGGSGGGGSQAVVTQEPSLTVSPGGTVTLTCRSSTGAVTTSNYANWVQQKPGQAPRGLIGGTNKRAPWTPARFSGSLLGGKAALTITGAQAEDEADYYCALWYSNLWVFGGGTKLTVLGGGGSDKTHTCPPCPAPELLGPSVFLFPPKPKDTLMISRTPEVTCVVVDVSHEDPEVKFNWYVDGVEVHNAKTKPREEQYNSTYRVVSVLTVLHQDWLNGKEYKCKVSNKALGAPIEKTISKAKGQPREPQVYTLPPSREEMTKNQVSLSCAVKGFYPSDIAVEWESNGQPENNYKTTPPVLDSDGSFFLVSKLTVDKSRWQQGNVFSCSVMHEALHNRFTQKSLSLSPGKGGGGSGGGGSGGGGSGGGGSDIQMTQSPSSLSASVGDRVTITCRASQDIRSNLNWYQQKPGGAVKLLIYYTSRLHSGVPSRFSGSGSGTDYTLTISSLQPEDFATYFCQQSEKLPRTFGGGTKVEIR light: SYVLTQPPSVSVAPGQTARITCGGNNIGSKSVHWYQQPPGQAPVVVVYDDSDRPSGIPERFSGSNSGNTATLTISRVEAGDEAVYYCQVWDSSSDHVVFGGGTKLTVLGQPKAAPSVTLFPPSSEELQANKATLVCLISDFYPGAVTVAWKGDSSPVKAGVETTTPSKQSNNKYAASSYLSLTPEQWKSHRSYSCQVTHEGSTVEKTVAPTECS",binds,binds,
